Series [1] concerns the molecule itself. Put plainly: co-sedimentation; co-pelleting assay: p62-PB1^1–122 with His6-tagged PB1 partner, 1 h on ice, 49,000 g, 4 °C, 30 min; pellet and supernatant on SDS-PAGE, Coomassie.
Series [2] concerns the molecule itself. Put plainly: co-sedimentation; sedimentation (pelletation) assay of single purified PB1 domains by ultracentrifugation; soluble and pellet fractions on SDS-PAGE.
The target of the next series is T1, MEKK3^43–127 (MEKK3–PB1) (UniProt Q99759 43-127).
T1 construct: MEKK3, residues 43-127 (PB1 domain); The His6 tag was kept for the gold-labelling and co-pelletation experiments; source: E. coli BL21 (DE3), expressed from pETM11, purified; not shown: His6, N-terminal, kept
T1 sequence (looked up): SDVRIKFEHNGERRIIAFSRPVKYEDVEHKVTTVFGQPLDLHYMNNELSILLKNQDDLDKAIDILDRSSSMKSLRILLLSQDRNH
Put plainly: not stated; binding of NBR1–PB1 to MEKK3 'also measured'; method not given. The settings on record: both partners purified.

Series [3] has as its target T2, MBP-tagged wild-type AtNBR1–PB1^1–94 (Arabidopsis thaliana, UniProt Q9SB64 1-94).
T2 construct: NBR1 autophagy receptor, Arabidopsis thaliana (AtNBR1), residues 1-94 (PB1 domain); Held on amylose resin in the pull-down; also called MBP–AtNBR1–PB1; source: E. coli BL21 (DE3), expressed as described for AtNBR1–PB1, buffer-exchanged; not shown: MBP, N-terminal, kept
T2 sequence (looked up): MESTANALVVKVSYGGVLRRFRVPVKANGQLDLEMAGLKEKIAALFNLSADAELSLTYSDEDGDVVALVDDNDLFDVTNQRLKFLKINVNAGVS
Put plainly: pull-down; MBP–AtNBR1–PB1 on amylose resin, 4:1 molar excess of AtNBR1–PB1 (mutant); wash 15 mM HEPES pH 7.5, 500 mM NaCl; eluted with 30 mM maltose; SDS-PAGE. Particulars: both partners purified.

B1: p62-PB1^1–122 (p62/SQSTM1 residues 1–122) (domain or fragment, human, UniProt Q13501 1-122, looked up)
chain: MASLTVKAYLLGKEDAAREIRRFSFCCSPEPEAEAEAAAGPGPCERLLSRVAALFPALRPGGFQAHYRDEDGDLVAFSSDEELTMAMSYVKDDIFRIYIKEKKECRRDHRPPCAQEAPRNMV
notes: Forms helical filaments; also called p62-PB1 filaments; source: E. coli BL21 (DE3), purified (Ni-NTA, 3C protease cleavage, Talon resin); not shown: His6, N-terminal, cleaved; MBP, N-terminal, cleaved
Take B1: the binding result in series [1] was “binds”.

B2: p62^1–102 (domain or fragment, human, UniProt Q13501 1-102, looked up)
chain: MASLTVKAYLLGKEDAAREIRRFSFCCSPEPEAEAEAAAGPGPCERLLSRVAALFPALRPGGFQAHYRDEDGDLVAFSSDEELTMAMSYVKDDIFRIYIKEK
notes: p62/SQSTM1, human, residues 1-102 (PB1 domain); also called p62 PB1 domain 1–102; source: expressed and purified
Take B2: in series [2], the binding result is recorded as “binds”.

B3: NBR1^1–85 (human NBR1–PB1) (domain or fragment, UniProt Q14596 1-85, looked up)
chain: MEPQVTLNVTFKNEIQSFLVSDPENTTWADIEAMVKVSFDLNTIQIKYLDEENEEVSINSQGEYEEALKMAVKQGNQLQMQVHEG
notes: NBR1, human, residues 1-85 (PB1 domain); The His6 tag was kept for the gold-labelling and co-pelletation experiments; also called HsNBR1^1–85; wild-type NBR1; source: E. coli BL21 (DE3), expressed from pETM11, purified; not shown: His6, N-terminal, kept
As to B3, in the series with MEKK3^43–127 (MEKK3–PB1), the Kd came to 13.3 µM.

B4: TFG1^1–95 (Trk-fused gene 1, TFG1–PB1) (domain or fragment, human, UniProt Q92734 1-95, looked up)
chain: MNGQLDLSGKLIIKAQLGEDIRRIPIHNEDITYDELVLMMQRVFRGKLLSNDEVTIKYKDEDGDLITIFDSSDLSFAIQCSRILKLTLFVNGQPR
notes: TFG1 (Trk-fused gene 1), human, residues 1-95 (PB1 domain); source: E. coli BL21 (DE3), purified (Ni-NTA, 3C protease cleavage, Talon resin); not shown: His6, N-terminal, cleaved; MBP, N-terminal, cleaved
Consider B4, for which, in series [2], the binding result is given as “binds”.

B5: AtNBR1^1–94 (AtNBR1–PB1) (domain or fragment, Arabidopsis thaliana, UniProt Q9SB64 1-94, looked up)
chain: T2 sequence (looked up)
notes: NBR1 autophagy receptor, Arabidopsis thaliana (AtNBR1), residues 1-94 (PB1 domain); Forms helical filaments; also called AtNBR1–PB1^1–94; NBR1^1–94 from Arabidopsis thaliana; source: E. coli BL21 (DE3), purified (Ni-NTA, 3C protease cleavage, Talon resin); not shown: His6, N-terminal, cleaved; MBP, N-terminal, cleaved
For B5, the binding result in series [3] and in series [2] was “binds” throughout.
